The values that follow come from the supplement of paper PMC11780869.

This series has as its system Bacillus subtilis. In words: cleaved RNA product abundance (RNA/gDNA barcode ratio) relative to median wild-type variant (ratio to wild type); higher = more accumulation of the downstream cleavage product. The following applies: cleavage site: cggR-gapA (positions -7 to +36 mutated). The procedure, abridged:
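Reporter mRNAs (truncated aprE or tetM) carrying barcoded, mutagenized RNase Y cleavage-site windows were made from oligos with a 9% error rate and integrated into the B. subtilis chromosome. Cultures grew in LB at 37°C from OD600 0.0003 to 0.3. Cleaved RNA was gel-selected, reverse transcribed and barcode-sequenced alongside genomic DNA barcodes, with UMI collapsing. Cleaved product abundance is the RNA:gDNA barcode ratio per variant, scaled to the median wild-type variant.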

[1] abbreviates: experiment (reporter, strain, medium): exp 4a: truncated aprE reporter, strain BJT201 with 2% xylose (RNase J1 expressed).
The mark [2] stands for this setting: experiment (reporter, strain, medium): exp 2b: truncated aprE reporter, strain BJT200.
[3] abbreviates: experiment (reporter, strain, medium): exp 6: tetM reporter, strain 168.

Regarding “ACAGACGAAGGAGCCGCAAAGAAGTTATTCAGGGAAGAATAATCCCTCAATATAAATATCTCTCACTTATTTAAA”, the “cleaved RNA product abundance” value under setting [1] turned out to be 0.697.
Consider “ACAGACGAAGGAGCCGCAAAGAAGTTATTCAGGGATAAATAATCCCTCAATATAAATATCTCTCACTTATTTAAA”, for which the “cleaved RNA product abundance” value under setting [1] was 1.1.
Still for that read-out and setting: as for “ACAGACGAAGGAGCCGCAAAGAAGTTATTCAGGGATGAACAATCCCTCAATATAAATATCTCTCACTTATTTAAA”, the figure is 0.603.
As to “ACAGACGAAGGAGCCGCAAAGAAGTTATTCAGGGATGAATAATACCTCAATATAAATATCTCTCACTTATTTAAA”, the “cleaved RNA product abundance” value under setting [1] worked out at 0.134.
With “ACAGACGAAGGAGCCGCAAAGAAGTTATTCAGGGATGAATAATCCATCAATATAAATATCTCTCACTTATTTAAA”, the “cleaved RNA product abundance” value under setting [1] amounted to 0.319.
Take “ACAGACGAAGGAGCCGCAAAGAAGTTATTCAGGGATGAATAATCCCCCAAAATAAATATCTCTCACTTATTTAAA”: under setting [1], the “cleaved RNA product abundance” value came to 0.165.
On to “ACAGACGAAGGAGCCGCAAAGAAGTTATTCAGGGATGAATAATCCCTAAATATAAATATCTCTCACTTATTTAAA”, for which the “cleaved RNA product abundance” value runs as follows: under setting [2], 0.695; under setting [1], 0.713.
With “ACAGACGAAGGAGCCGCAAAGAAGTTATTCAGGGATGAATAATCCCTCAATATAAAAATCTCTCACTTATTTAAA”, the “cleaved RNA product abundance” value under setting [1] is 0.461.
For “ACAGACGAAGGAGCCGCAAAGAAGTTATTCAGGGATGAATAATCCCTCAATATAAATAACTCTCACTTATTTAAA”, the “cleaved RNA product abundance” value under setting [2] amounted to 0.615.
As to “ACAGACGAAGGAGCCGCAAAGAAGTTATTCAGGGATGAATAATCCCTCAATATAAATATCTCTCACTTATTTAAA”, the “cleaved RNA product abundance” value under setting [2] came out at 0.766, the “cleaved RNA product abundance” value under setting [1] worked out at 0.882 and the “cleaved RNA product abundance” value under setting [3] is 0.609.
Turning to “ACAGACGAAGGAGCCGCAAAGAAGTTATTCAGGGATGAATAATCCGTCAATATAAATATCTCTCACTTATTTAAA”, under setting [2], the “cleaved RNA product abundance” value was 0.117.
For the sequence “ACAGACGAAGGAGCCGCAAAGAAGTTATTCAGGGATGAATAATTCCTCAATATAAATATCTCTCACTTATTTAAA”, the “cleaved RNA product abundance” value under setting [1] was 0.513.
For the sequence “ACAGACGAAGGAGCCGCAAAGAAGTTATTCAGGGATGAATTATCCCTCAATATAAATATCTCTCACTTATTTAAA”, the “cleaved RNA product abundance” value stood at 0.56 under setting [2] and 0.629 under setting [1].
“ACAGACGAAGGAGCCGCAAAGAAGTTATTCAGGGATGATTAATCCCTCAATATAAATATCTCTCACTTATTTAAA”: the “cleaved RNA product abundance” value under setting [2] was 0.532.
Regarding “ACAGACGAAGGAGCCGCAAAGAAGTTATTCAGGGATTAATAATCCCTCAATATAAATATCTCTCACTTATTTAAA”, the “cleaved RNA product abundance” value under setting [2] worked out at 0.815 and the “cleaved RNA product abundance” value under setting [1] was determined as 1.
For the sequence “ACAGACGAAGGAGCCGCAAAGAAGTTATTCAGGGTTGAATAATCCCTCAATATAAATATCTCTCACTTATTTAAA”, the “cleaved RNA product abundance” value under setting [1] came to 0.412.
With “ACAGACGAAGGAGCCGCAAAGAAGTTATTCAGGTATAAATAATCCCTCAATATAAATATCTCTCACTTATTTAAA”, under setting [1], the “cleaved RNA product abundance” value turned out to be 0.118.
The same measure, in the same setting: then “ACAGACGAAGGAGCCGCAAAGAAGTTATTCAGGTATGAATAATCCCTCAATATAAATATCTCTCACTTATTTAAA”, with 0.161; and “ACAGACGAAGGAGCCGCAAAGAAGTTATTCAGGTATGTATAATCCCTCAATATAAATATCTCTCACTTATTTAAA”, with 0.143.
Turning to “ACAGACGAAGGAGCCGCAAAGAAGTTATTCATGGATGAATAATCCCTCAATATAAATATCTCTCACTTATTTAAA”, the “cleaved RNA product abundance” value under setting [1] turned out to be 0.137.
Turning to “ACAGACGAAGGAGCCGCAAAGAAGTTATTCTGGGATGAATAATCCCTCAATATAAATATCTCTCACTTATTTAAA”, the “cleaved RNA product abundance” value under setting [1] stood at 0.742.
As for “ACAGACGAAGGAGCCGCAAAGAAGTTATTGAGGCATGAATAATCCCTCAATATAAATATCTCTCACTTATTTAAA”, the “cleaved RNA product abundance” value is 0.0906 under setting [2] and 0.0717 under setting [1].
On to “ACAGACGAAGGAGCCGCAAAGAAGTTATTGAGGGATGAATAATCCCTAAATATAAATATCTCTCACTTATTTAAA”, for which the “cleaved RNA product abundance” value under setting [1] turned out to be 0.897.
As to “ACAGACGAAGGAGCCGCAAAGAAGTTATTGAGGGATGAATAATCCCTCAATATAAATATCTCTCACTTATTTAAA”, the “cleaved RNA product abundance” value under setting [2] worked out at 0.116, the “cleaved RNA product abundance” value under setting [1] was 0.0555 and the “cleaved RNA product abundance” value under setting [3] was 0.247.
Regarding “ACAGACGAAGGAGCCGCAAAGAAGTTATTGAGGGATGAATAATCCCTCAATATACATATCTCTCACTTATTTAAA”, under setting [1], the “cleaved RNA product abundance” value is 0.0596.
Turning to “ACAGACGAAGGAGCCGCAAAGAAGTTATTGAGGGATGAATACTCCCTCAATATAAATATCTCTCACTTATTTAAA”, the “cleaved RNA product abundance” value under setting [1] came to 0.0909.
On to “ACAGACGAAGGAGCCGCAAAGAAGTTATTGAGGGATGAATTATCCCTCAATATAAATATCTCTCACTTATTTAAA”, for which the “cleaved RNA product abundance” value under setting [1] was 0.0896.
“ACAGACGAAGGAGCCGCAAAGAAGTTATTGAGGGCTGAATAATCCCTCAATATAAATATCTCTCACTTATTTAAA”: the “cleaved RNA product abundance” value under setting [1] stood at 0.167.
Same read-out and setting: then “ACAGACGAAGGAGCCGCAAAGAAGTTATTGCGGGATGAATAATCCCTCAATATAAATATCTCTCACTTATTTAAA”, with 0.869.
In the case of “ACAGACGAAGGAGCCGCAAAGAAGTTATTTAAGGATGAATAATCCCTCAATATAAATATCTCTCACTTATTTAAA”, the “cleaved RNA product abundance” value reads like this: under setting [2], 0.125; under setting [1], 0.182.
Consider “ACAGACGAAGGAGCCGCAAAGAAGTTATTTAAGGGATGAATAATCCCTCAATATAAATATCTCTCACTTATTTAA”, for which the “cleaved RNA product abundance” value under setting [1] is 0.315.
With “ACAGACGAAGGAGCCGCAAAGAAGTTATTTAGCGATGAATAATCCCTCAATATAAATATCTCTCACTTATTTAAA”, the “cleaved RNA product abundance” value by setting is: under setting [2], 0.117; under setting [1], 0.0809.
With “ACAGACGAAGGAGCCGCAAAGAAGTTATTTAGGAATGAATAATCCCTCAATATAAATATCTCTCACTTATTTAAA”, the “cleaved RNA product abundance” value under setting [1] was 0.127.
For “ACAGACGAAGGAGCCGCAAAGAAGTTATTTAGGCATGAATAATCCCTCAATATAAATATCTCTCACTTATTTAAA”, the “cleaved RNA product abundance” value turned out to be 0.0926 under setting [2] and 0.135 under setting [1].
As to “ACAGACGAAGGAGCCGCAAAGAAGTTATTTAGGGAAGAATAATCCCTCAATATAAATATCTCTCACTTATTTAAA”, the “cleaved RNA product abundance” value under setting [1] was found to be 0.572.
Turning to “ACAGACGAAGGAGCCGCAAAGAAGTTATTTAGGGATAAATAATCCCTCAATATAAATATCTCTCACTTATTTAAA”, the “cleaved RNA product abundance” value reads like this: under setting [2], 0.577; under setting [1], 0.696.
As for “ACAGACGAAGGAGCCGCAAAGAAGTTATTTAGGGATCAATAATCCCTCAATATAAATATCTCTCACTTATTTAAA”, the “cleaved RNA product abundance” value under setting [1] was determined as 0.787.
Regarding “ACAGACGAAGGAGCCGCAAAGAAGTTATTTAGGGATGAACAATCCCTCAATATAAATATCTCTCACTTATTTAAA”, the “cleaved RNA product abundance” value under setting [1] was determined as 0.85.
Same read-out and setting: then “ACAGACGAAGGAGCCGCAAAGAAGTTATTTAGGGATGAAGAATCCCTCAATATAAATATCTCTCACTTATTTAAA”, with 0.607.
On the same count and under the same terms, then “ACAGACGAAGGAGCCGCAAAGAAGTTATTTAGGGATGAATAACCCCTCAATATAAATATCTCTCACTTATTTAAA”, with 0.288; and “ACAGACGAAGGAGCCGCAAAGAAGTTATTTAGGGATGAATAATACCTCAATATAAATATCTCTCACTTATTTAAA”, with 0.141.
The same measure, in the same setting: then “ACAGACGAAGGAGCCGCAAAGAAGTTATTTAGGGATGAATAATCACTCAATATAAATATCTCTCACTTATTTAAA”, with 0.137; and “ACAGACGAAGGAGCCGCAAAGAAGTTATTTAGGGATGAATAATCCATCAATATAAATATCTCTCACTTATTTAAA”, with 0.34; and “ACAGACGAAGGAGCCGCAAAGAAGTTATTTAGGGATGAATAATCCCACAATATAAATATCTCTCACTTATTTAAA”, with 0.268.
On to “ACAGACGAAGGAGCCGCAAAGAAGTTATTTAGGGATGAATAATCCCTAAATATAAATATCTCTCACTTATTTAAA”, for which the “cleaved RNA product abundance” value under setting [2] was 0.353.
Still for that read-out and setting: as for “ACAGACGAAGGAGCCGCAAAGAAGTTATTTAGGGATGAATAATCCCTCAAGATAAATATCTCTCACTTATTTAAA”, the figure is 0.16.
In the case of “ACAGACGAAGGAGCCGCAAAGAAGTTATTTAGGGATGAATAATCCCTCAATACAAATATCTCTCACTTATTTAAA”, the “cleaved RNA product abundance” value under setting [1] is 0.0541.
Same read-out and setting: then “ACAGACGAAGGAGCCGCAAAGAAGTTATTTAGGGATGAATAATCCCTCAATATAAAAATCTCTCACTTATTTAAA”, with 0.601.
On the same count and under the same terms, as for “ACAGACGAAGGAGCCGCAAAGAAGTTATTTAGGGATGAATAATCCCTCAATATAAACATCTCTCACTTATTTAAA”, the figure is 0.701.
For “ACAGACGAAGGAGCCGCAAAGAAGTTATTTAGGGATGAATAATCCCTCAATATAAATATCTCTCACTTATTTAAA”, the “cleaved RNA product abundance” value under setting [2] is 0.704, the “cleaved RNA product abundance” value under setting [1] is 0.799 and the “cleaved RNA product abundance” value under setting [3] came out at 0.636.
Regarding “ACAGACGAAGGAGCCGCAAAGAAGTTATTTAGGGATGAATAATCCCTCAATATAATTATCTCTCACTTATTTAAA”, the “cleaved RNA product abundance” value under setting [1] stood at 0.52.
The same measure, in the same setting: then “ACAGACGAAGGAGCCGCAAAGAAGTTATTTAGGGATGAATAATCCCTCAATATACATATCTCTCACTTATTTAAA”, with 0.312.
Same read-out and setting: as for “ACAGACGAAGGAGCCGCAAAGAAGTTATTTAGGGATGAATAATCCCTCAATTTAAATATCTCTCACTTATTTAAA”, the figure is 0.119; as for “ACAGACGAAGGAGCCGCAAAGAAGTTATTTAGGGATGAATAATCCCTGAATATAAATATCTCTCACTTATTTAAA”, 0.559.
Consider “ACAGACGAAGGAGCCGCAAAGAAGTTATTTAGGGATGAATAATCCCTTAATATAAATATCTCTCACTTATTTAAA”, for which the “cleaved RNA product abundance” value under setting [1] was 1.39.
